The text below walks through data of PMC5505021.

For this experiment, the target named is heat shock protein 90β (African green monkey (endogenous in Vero)). Briefly: flow cytometry on cells.

For “Japanese encephalitis virus strain SA14, purified viral particles (complex)”, the percentage of HSP90β-JEV binding by FCM (0 μg/ml anti-HSP90β mAb) is 76.2%, the percentage of HSP90β-JEV binding by FCM (with 20 μg/ml anti-HSP90β mAb) amounted to 19.1% and the percentage of HSP90β-JEV binding by FCM (with 100 μg/ml anti-HSP90β mAb) turned out to be 10.4%.
